Data reported in patent US20100095387A1, “METHODS AND REAGENTS FOR SCREENING NEW DRUGS AND FOR TREATING ION PUMP ASSOCIATED DISORDERS AND DISEASES” (priority 2005, published 2010).

Biological target: α3 subunit of the Na+/K+-ATPase, endogenous on mouse cells (cortical neurons, cortical slices, cardiac myocytes) (mouse) (UniProt Q6PIC6)
Assay: cell-based or functional assay

| EC50 of c-fos induction (Fos in situ enzyme-linked immunoassay, cortical cultures) | Substance |
| --- | --- |
| 0.0119 nM | C-Ag95z0, soluble 95-kD COOH terminus of mouse agrin, y4 z0 (from UniProt A2ASQ1 1144-1950) (ligand) |
| 0.0127 nM | C-Ag95z8, soluble 95-kD COOH terminus of mouse agrin, y4 z8 (from UniProt A2ASQ1 1144-1950) (ligand) |
